T1: His9-hMSR1 (human MSR1 extracellular domain) (Homo sapiens, UniProt P21757)
T1 construct: human MSR1 extracellular domain expressed with a N-terminal nonahistidine tag; His9 (nonahistidine) (N); purchased R&D Systems 2708-MS
T1 sequence (P21757 77-451 limits assumed): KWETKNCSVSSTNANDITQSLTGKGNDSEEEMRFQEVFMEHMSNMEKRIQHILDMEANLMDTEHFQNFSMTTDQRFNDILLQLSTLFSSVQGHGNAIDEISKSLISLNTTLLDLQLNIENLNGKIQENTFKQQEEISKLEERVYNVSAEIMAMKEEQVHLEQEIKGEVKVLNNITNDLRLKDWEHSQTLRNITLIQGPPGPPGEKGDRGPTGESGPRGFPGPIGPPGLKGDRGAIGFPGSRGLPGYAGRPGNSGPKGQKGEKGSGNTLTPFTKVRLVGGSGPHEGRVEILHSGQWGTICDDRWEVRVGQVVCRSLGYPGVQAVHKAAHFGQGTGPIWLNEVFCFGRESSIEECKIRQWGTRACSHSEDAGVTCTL

T2: PMA-treated THP-1 cells (endogenously expressed human MSR1) (Homo sapiens, UniProt P21757)
T2 construct: endogenous in cells; host or cells: THP-1 cells differentiated with PMA
T2 sequence (P21757 1-451): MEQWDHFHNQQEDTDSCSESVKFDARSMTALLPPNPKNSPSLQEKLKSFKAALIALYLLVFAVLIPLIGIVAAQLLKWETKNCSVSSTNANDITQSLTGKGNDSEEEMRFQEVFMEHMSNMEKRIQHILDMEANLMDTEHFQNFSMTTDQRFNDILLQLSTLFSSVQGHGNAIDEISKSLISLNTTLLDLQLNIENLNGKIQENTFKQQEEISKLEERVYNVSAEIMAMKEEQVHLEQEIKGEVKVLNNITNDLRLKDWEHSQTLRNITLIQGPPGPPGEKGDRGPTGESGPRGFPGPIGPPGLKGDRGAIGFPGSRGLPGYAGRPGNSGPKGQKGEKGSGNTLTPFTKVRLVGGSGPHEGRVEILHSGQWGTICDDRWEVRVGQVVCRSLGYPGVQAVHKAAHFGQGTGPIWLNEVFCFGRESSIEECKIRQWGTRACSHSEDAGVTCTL

T3: MSR1-mediated Dil-AcLDL uptake in HEK293.Myc.hMSR1 cells (Homo sapiens, UniProt P21757)
T3 construct: expressed in transfected cells; host or cells: HEK293 (lentiviral transduction, hygromycin selection)
T3 sequence (P21757 1-451): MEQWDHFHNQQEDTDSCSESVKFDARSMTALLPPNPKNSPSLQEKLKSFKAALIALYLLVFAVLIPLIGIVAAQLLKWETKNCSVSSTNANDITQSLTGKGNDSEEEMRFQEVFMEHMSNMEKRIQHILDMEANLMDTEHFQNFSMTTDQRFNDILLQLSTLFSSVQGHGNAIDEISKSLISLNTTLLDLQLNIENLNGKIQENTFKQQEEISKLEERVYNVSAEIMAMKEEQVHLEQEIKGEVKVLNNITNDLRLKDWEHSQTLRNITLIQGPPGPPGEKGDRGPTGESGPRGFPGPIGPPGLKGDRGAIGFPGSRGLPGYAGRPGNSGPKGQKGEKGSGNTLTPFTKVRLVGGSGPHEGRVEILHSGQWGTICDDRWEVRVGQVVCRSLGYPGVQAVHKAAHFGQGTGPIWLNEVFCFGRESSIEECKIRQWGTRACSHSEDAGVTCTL


Legend:
[1] = biological target: HMM-mfMSR1 (monkey MSR1 extracellular domain); assay: Biacore surface plasmon resonance binding kinetics of anti-MSR1 mAbs, antibody-capture format; conditions: analyte HMM-mfMSR1, NB = no binding observed; for kd: * = no dissociation observed, kd manually fixed at 1.00E−05; for ka: antibody-capture format; for Kd: calculated from kinetic rates; for t½: dissociative half-life
Protocol: (§1) Binding affinities and kinetic constants of human anti-MSR1 antibodies for different MSR1 reagents were determined by real-time surface plasmon resonance (Biacore 4000). All binding studies were performed in 10 mM HEPES, 150 mM NaCl, 3 mM EDTA, and 0.05% v/v Surfactant Tween-20, pH 7.4 (HBS-ET) running buffer at 25° C. and 37° C.
(§2) The association rate (ka) and dissociation rate (kd) were determined by fitting the real-time binding sensorgrams to a 1:1 binding model with mass transport limitation using Scrubber 2.0c curve-fitting software. Binding dissociation equilibrium constant (KD) and dissociative half-life (t½) were calculated from the kinetic rates as: […]

[2] = biological target: T1, His9-hMSR1 (human MSR1 extracellular domain); assay: as above; conditions: analyte His9-hMSR1, NB = no binding observed; for kd: * = no dissociation observed, kd manually fixed at 1.00E−05; for ka: antibody-capture format; for Kd: calculated from kinetic rates; for t½: dissociative half-life
Protocol: as §1, §2

[3] = biological target: T2, PMA-treated THP-1 cells (endogenously expressed human MSR1); assay: Electrochemiluminescence antibody binding assay on MSR1-expressing cells; format: cell-based
parental HEK293 cells = assay: Electrochemiluminescence antibody binding assay, non-specific binding control cells; format: cell-based, human
[4] = system: B16F10.9 cells (MSR1 negative); assay: Flow cytometry binding, MSR1 negative cells; format: cell-based, mouse; conditions: 10 μg/mL antibody
Protocol: Relative cell surface binding of the anti-MSR1 antibodies to mouse MSR1 expressing cells was determined by flow cytometry using MSR1 positive RAW264.7 cells (ATCC, Catalog #TIB-71) and MSR1 negative B16F10.9 cells (Lin et al. 1998. PNAS 95:8829-8834). For the assay, cells were plated in PBS without calcium and magnesium (VWR Cat #45000-446) and 2% FBS (Saradigm Cat #1500-500) (Staining Buffer) in 96 well V-bottom plates (Axygen Scientific, Cat #P-96-450-V-C-S). To block binding to Fc receptors, RAW264.7 cells were incubated for 30 minutes at 4° C. with 500 μg/mL mouse IgG (Jackson ImmunoResearch, Cat #015-000-003) diluted in staining buffer, while B16F10.9 cells remained in staining buffer. Following Fc receptor blocking, 10 μg/mL of anti-MSR1 antibodies or an isotype control antibody were added to the cells and were subsequently incubated for 30 minutes on ice. For a positive control, a commercial anti-mouse MSR1 (Sino Biological, Cat #50129-R004) antibody was used, while a rabbit IgG antibody (Thermo Scientific, Cat #26102) was used as a negative control. […] Cells were subsequently washed and fixed using a 50% solution of Cytofix (BD Biosciences, Cat #554655) diluted in PBS. […] The signal to noise (S/N) was determined by calculating the ratio of the anti-MSR1 antibodies or the control antibodies MFI to the unstained sample MFI (Table 11).

[5] = biological target: T3, MSR1-mediated Dil-AcLDL uptake in HEK293.Myc.hMSR1 cells; assay: Ligand uptake assay, Dil-AcLDL; format: cell-based; conditions: 10 μg/mL Dil-AcLDL; for Dil-Acetylated LDL % Inhibition: maximum inhibition
How it was run: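 HEK293 cells stably expressing Myc-tagged human MSR1 were pre-treated with antibody for 30 min, then given Dil-OxLDL or Dil-AcLDL at 10 μg/mL. Uptake measured as fluorescence (RFU); percent inhibition relative to ligand-only baseline and no-ligand background, EC50/IC50 from 4-parameter logistic fits.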

HMM-mfMSR1 (monkey MSR1 extracellular domain), sequence (as listed by the source): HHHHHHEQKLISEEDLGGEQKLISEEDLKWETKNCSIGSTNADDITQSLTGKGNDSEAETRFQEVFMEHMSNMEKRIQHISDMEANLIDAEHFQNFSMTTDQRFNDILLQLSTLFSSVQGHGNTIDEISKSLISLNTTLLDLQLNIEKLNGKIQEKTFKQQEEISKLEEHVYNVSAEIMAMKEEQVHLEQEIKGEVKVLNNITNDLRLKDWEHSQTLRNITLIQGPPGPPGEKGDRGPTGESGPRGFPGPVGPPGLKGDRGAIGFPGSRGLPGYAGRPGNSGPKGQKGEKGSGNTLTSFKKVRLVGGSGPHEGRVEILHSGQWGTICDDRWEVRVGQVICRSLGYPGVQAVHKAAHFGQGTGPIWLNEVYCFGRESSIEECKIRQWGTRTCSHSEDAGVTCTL

Row | Molecule | kd ([1]; 25° C.) | ka ([1]; 25° C.) | kd ([1]; 37° C.) | ka ([1]; 37° C.) | kd ([2]; 25° C.) | ka ([2]; 25° C.) | kd ([2]; 37° C.) | ka ([2]; 37° C.) | Ratio of 11 nM Antibody Binding Signal (RLU) to isotype control, PMA-treated THP-1 [3] | Dil-Acetylated LDL % Inhibition [5] | Ratio of 11 nM Antibody Binding Signal (RLU) to isotype control, HEK293 (parental HEK293 cells) | B16F10.9 MFI [4] | further results
1 | H1H27754P-N297Q: one of "Twelve anti-MSR1 antibodies"; "made with an N297Q single point mutation in human Fcγ portion" (antibody, V domains shown) VH: EVQLVESGGGLVQPGGSLRLSCAASGFTFRTYAMTWVRQAPGKGLDWVSAITGDGGNTYYADSVKGRFTISRDNSKNTLYLQMNSLRAEDTAIYYCAKDQRFSFALYYFDYWGQGTLVTVSS VL: DIQMTQSPSSVSASVGDRVTITCRASQGISSWLAWYQQKPGNAPKLLIYAAFSLQSGVPSRFSGSGSGTDFTLTISSLQPEDFATYYCQQANNFPWTFGQGTKVEIKR | 1.76e-05 s⁻¹ | 235000 M⁻¹ s⁻¹ | 3.53e-05 s⁻¹ | 701000 M⁻¹ s⁻¹ | 1.00E−05* s^−1 | 290000 M⁻¹ s⁻¹ | 2.53e-05 s⁻¹ | 663000 M⁻¹ s⁻¹ | 66 | – | 18 | 4091 | –
2 | H1H27734P-N297Q: one of "Twelve anti-MSR1 antibodies"; "made with an N297Q single point mutation in human Fcγ portion" (antibody, V domains shown) VH: EVQLVESRGGLVQPGGSLRLSCAASGFTFSSYAMSWVRQAPGKGLEWVSAISGSGGSTFYADSVKGRFTISRDNSKNTVYLQMNSLRAEDTAVYYCAKALVLRFLEWLGDYWGQGTLVTVSS VL: DIQMTQSPSTLSASVGDRVTITCRASQSISSWLAWFQQKPGKAPKLLIYKASSLESGVPSRFSGSGSGTEFTLTISSLQPDDFATYYCQQYKSYWTFGQGTKVEIKR | 0.00291 s⁻¹ | 423000 M⁻¹ s⁻¹ | 0.0032 s⁻¹ | 949000 M⁻¹ s⁻¹ | 0.00111 s⁻¹ | 420000 M⁻¹ s⁻¹ | 0.0019 s⁻¹ | 1.09e+06 M⁻¹ s⁻¹ | 21 | no inhibition | 14 | 4505 | Dil-Acetylated LDL IC50 [5]: no inhibition; maximum inhibition of Dil-AcLDL uptake [5]: no inhibition

Continued, in another order:

Row | kd ([1]; 25° C.) | ka ([1]; 25° C.) | kd ([1]; 37° C.) | ka ([1]; 37° C.) | kd ([2]; 25° C.) | ka ([2]; 25° C.) | kd ([2]; 37° C.) | ka ([2]; 37° C.) | Ratio of 11 nM Antibody Binding Signal (RLU) to isotype control, PMA-treated THP-1 [3] | Dil-Acetylated LDL % Inhibition [5] | Molecule | Ratio of 11 nM Antibody Binding Signal (RLU) to isotype control, HEK293 (parental HEK293 cells) | B16F10.9 MFI [4] | further results
3 | 4.69e-05 s⁻¹ | 98200 M⁻¹ s⁻¹ | 0.000187 s⁻¹ | 278000 M⁻¹ s⁻¹ | 2.24e-05 s⁻¹ | 129000 M⁻¹ s⁻¹ | 0.000132 s⁻¹ | 286000 M⁻¹ s⁻¹ | 38 | – | H1H27731P-N297Q: one of "Twelve anti-MSR1 antibodies"; "made with an N297Q single point mutation in human Fcγ portion" (antibody, V domains shown) VH: QLQLQESGPGLVKPSETLSLTCTVSGGSISRISYYWGWIRQPPGKGLEWIGSIYDSGSTYYNPSLKSRVTISIDTSKNQFSLKLSSVTAADTAVYYCVRYSSSSAFAFDYWGQGTLVTVSS VL: DIQMTQSPSSVSASVGDRVTITCRASQGISSWLAWYQQKPGKAPKLLIYAASSLQSGVPSRFSGSGSGTDFTLTISSLQPEDFATYYCQQANSFPFTFGPGTKVDIKR | 7 | 3688 | –
4 | 7.51e-05 s⁻¹ | 1.36e+06 M⁻¹ s⁻¹ | 1.08e-05 s⁻¹ | 2.74e+06 M⁻¹ s⁻¹ | 4.89e-05 s⁻¹ | 1.23e+06 M⁻¹ s⁻¹ | 1.23e-05 s⁻¹ | 2.67e+06 M⁻¹ s⁻¹ | 5 | 65% | H1H21227N-N297Q: "modified versions of 21227N (H1H21227N-N297Q and H1H21227N-N297D)"; anti-MSR1 antibody "with a N297Q single point mutation" (antibody, V domains shown) VH: QVQLVQSGAEVKKPGASVKVSCKVSGYTLTELSIHWVRQVPGKGLEWMGGFDPEEGETIFAQEFRDRVTLTEDTSPDTAYMELSSLKSEDAAVYYCTTPRYCNNGICYDYWGQGTLVTVSS VL: DIQMTQSPSSLSASVGDRVTITCRASQSISNYLNWYQQKPGKAPKLLIYTASSLQSGVPSRFSGSGSGTDFTLTISSLQTEDFATYYCQQSYSNFPITFGQGTRLEIKR | 1 | 3287 | Kd ([1]; 25° C.): 55.3 pM; t½ ([1]; 25° C.): 2.57 h; Kd ([1]; 37° C.): 3.95 pM; t½ ([1]; 37° C.): 17.82 h; Kd ([2]; 25° C.): 39.7 pM; t½ ([2]; 25° C.): 3.93 h; Kd ([2]; 37° C.): 4.6 pM; t½ ([2]; 37° C.): 15.7 h; B16F10.9 S/N [4]: 1; IC50 ([5]; read-out: Dil-Acetylated LDL IC50): 2400 pM

— patent US12497460B2, “Anti-MSR1 antibodies and methods of use thereof” (REGENERON PHARMACEUTICALS, INC., priority 2018, dated 2025)
